According to US20260250341A1:
Changes are numbered by the printed parent chain. Names may count otherwise. Values belong to the binder of their own block, whether it stands above or below them.

What was measured:
[1] = target: Recombinant Human FGFR1 alpha (IIIc) Fc Chimera Protein (R&D systems, 658-FR-050) (human) (UniProt P11362); assay: ELISA: FGFR1-Fc coated at 0.5 ug/ml, FGF sample at 80 ng/ml, biotinylated anti-FGF antibody BAM233 and streptavidin-HRP, blank subtracted; sample kept 0 h at 37 C
[2] = target: Recombinant Human FGFR1 alpha (IIIc) Fc Chimera Protein (R&D systems, 658-FR-050) (human) (UniProt P11362); assay: ELISA: FGFR1-Fc coated at 0.5 ug/ml, FGF sample at 80 ng/ml, biotinylated anti-FGF antibody BAM233 and streptavidin-HRP, blank subtracted; sample kept 6 h at 37 C
[3] = target: Recombinant Human FGFR1 alpha (IIIc) Fc Chimera Protein (R&D systems, 658-FR-050) (human) (UniProt P11362); assay: ELISA: FGFR1-Fc coated at 0.5 ug/ml, FGF sample at 80 ng/ml, biotinylated anti-FGF antibody BAM233 and streptavidin-HRP, blank subtracted; sample kept 24 h at 37 C
[4] = target: Recombinant Human FGFR1 alpha (IIIc) Fc Chimera Protein (R&D systems, 658-FR-050) (human) (UniProt P11362); assay: ELISA: FGFR1-Fc coated at 0.5 ug/ml, FGF sample at 80 ng/ml, biotinylated anti-FGF antibody BAM233 and streptavidin-HRP, blank subtracted; sample kept 48 h at 37 C

Chain of Recombinant Human FGFR1 alpha (IIIc) Fc Chimera Protein (R&D systems, 658-FR-050) (human) (P11362 22-376, change not shown): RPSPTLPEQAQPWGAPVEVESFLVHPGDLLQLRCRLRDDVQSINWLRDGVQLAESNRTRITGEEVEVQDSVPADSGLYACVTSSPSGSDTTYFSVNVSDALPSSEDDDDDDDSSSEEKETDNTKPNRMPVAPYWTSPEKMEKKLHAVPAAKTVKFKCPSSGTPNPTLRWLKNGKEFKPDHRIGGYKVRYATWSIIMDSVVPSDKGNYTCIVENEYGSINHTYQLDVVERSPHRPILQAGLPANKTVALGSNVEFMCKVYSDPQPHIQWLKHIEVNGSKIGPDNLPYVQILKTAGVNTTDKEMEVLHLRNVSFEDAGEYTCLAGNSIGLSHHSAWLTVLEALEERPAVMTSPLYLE

Absorbance (450 nm) (absorbance (450 nm)) [1]: 2.1
Absorbance (450 nm) (absorbance (450 nm)) [2]: 0.9
Absorbance (450 nm) (absorbance (450 nm)) [3]: 0.7
Absorbance (450 nm) (absorbance (450 nm)) [4]: 0.6
B1: FGF320 (FGF1 + FGF2-CHIMERA_Pig) (ligand)
chain: MANYKKPKLLYCSNGGHFLRIHPDGRVDGVREKSDPHIKLQLQAEERGVVSIKGVCANRYLAMDTSGLLYGSQTPSEECLFLERLEENHYNTYTSKKHAEKNWFVGLKKNGSCKRGPRTHYGQKAILFLPLPV

Absorbance (450 nm) (absorbance (450 nm)) [1]: 2.5
Absorbance (450 nm) (absorbance (450 nm)) [2]: 2.4
Absorbance (450 nm) (absorbance (450 nm)) [3]: 2.3
Absorbance (450 nm) (absorbance (450 nm)) [4]: 2.3
B2: FGF323 (FGF1 + FGF2-CHIMERA_Pig_C12S; Q43I; A62C; H89G; C113A) (ligand)
chain: B1 chain with C12S, Q43I, A62C, H89G, C113A
